From patent US20260217793A1 (Chugai, published 2026) come the findings set out here.

The target of assay [1] is human IgA (hIgA). The experiment in a line: SPR, comparison of calcium conditions.
In assay [2] the target is T1, human FcγRIIb (human, UniProt P31994 43-217).
T1 sequence (looked up): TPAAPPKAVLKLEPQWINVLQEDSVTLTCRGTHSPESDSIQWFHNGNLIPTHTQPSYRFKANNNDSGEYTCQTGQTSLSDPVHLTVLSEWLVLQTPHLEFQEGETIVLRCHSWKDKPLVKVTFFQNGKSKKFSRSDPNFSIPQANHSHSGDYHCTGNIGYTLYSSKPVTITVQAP
The experiment in a line: SPR, amount bound per captured antibody.

Assay [3] addresses T2, human FcγRIIa type R (human, UniProt P12318 34-217).
T2 sequence (looked up): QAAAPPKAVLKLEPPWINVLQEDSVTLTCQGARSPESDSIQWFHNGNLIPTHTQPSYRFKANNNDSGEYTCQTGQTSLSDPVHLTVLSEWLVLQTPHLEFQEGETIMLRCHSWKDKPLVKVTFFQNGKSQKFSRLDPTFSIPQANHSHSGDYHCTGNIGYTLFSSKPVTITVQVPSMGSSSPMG
The experiment in a line: SPR, amount bound per captured antibody.

For assay [4], the target named is FcγRIa (human, UniProt P12314 16-292). Description: SPR.
Sequence of FcγRIa (P12314 16-292): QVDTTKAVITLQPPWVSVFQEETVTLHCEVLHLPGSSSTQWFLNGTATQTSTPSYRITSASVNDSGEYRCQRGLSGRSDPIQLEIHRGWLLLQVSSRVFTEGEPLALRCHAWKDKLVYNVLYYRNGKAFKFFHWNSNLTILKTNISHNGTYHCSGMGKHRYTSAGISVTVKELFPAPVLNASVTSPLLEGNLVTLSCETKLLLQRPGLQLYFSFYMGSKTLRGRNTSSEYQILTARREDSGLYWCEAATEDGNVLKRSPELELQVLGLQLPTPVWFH
For assay [5], the target named is T3, FcγRIIb (human, UniProt P31994 43-217).
T3 sequence (looked up): T1 sequence (looked up)
Description: SPR.

In assay [6] the target is T4, FcγRIIa type R (human, UniProt P12318 34-217).
T4 sequence (looked up): T2 sequence (looked up)
Description: SPR.

The target in assay [7] is T5, FcγRIIa type H (human, UniProt P12318 34-217).
T5 sequence (looked up): T2 sequence (looked up) with R134H
The experiment in a line: SPR.

In assay [8] the target is FcγRIIIa type V (human, UniProt P08637 17-208). The experiment in a line: SPR.
Sequence of FcγRIIIa type V (P08637 17-208 F176V): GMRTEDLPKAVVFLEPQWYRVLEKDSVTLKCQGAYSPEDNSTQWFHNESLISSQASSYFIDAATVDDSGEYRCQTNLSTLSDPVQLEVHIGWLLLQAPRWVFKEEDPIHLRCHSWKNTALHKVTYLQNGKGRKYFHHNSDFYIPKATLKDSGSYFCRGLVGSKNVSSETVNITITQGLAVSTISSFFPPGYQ
In assay [9] the target is T1, human FcγRIIb. The experiment in a line: ratio of SPR KD values.
The target of assay [10] is T2, human FcγRIIa type R. Description: ratio of SPR KD values.

Changes are numbered by the printed parent chain.

B1: GA2-IgG1 (antibody, V domains shown)
VH: QVQLVQSGAEVKKPGSSVKVSCKASGGTFSSYAISWVRQAPGQGLEWMGGIIPIFGTANYAQKFQGRVTITADESTSTAYMELSSLRSEDTAVYYCARPRWETAISSDAFDIWGQGTMVTVSS
VL: DIQMTQSPSSLSASVGDRVTITCRASQSISDDLNWYQQKPGKAPKLLIYEASNLQSGVPSRFSGSGSGTDFTLTISSLQPEDFATYYCQQHSSSPLTFGQGTKVEIKR
With B1, in assay [1], the “Ca-dependent hIgA-binding activity (fold)” value is not below 100 fold.

B2: IL6R-F652/IL6R-L (antibody, human IgG1, kappa)
heavy: QVQLQESGPGLVKPSETLSLTCAVSGHSISHDHAWSWVRQPPGEGLEWIGFISYSGITNYNPSLQGRVTISRDNSKNTLYLQMNSLRAEDTAVYYCARSLARTTAMDYWGEGTLVTVSSASTKGPSVFPLAPSSKSTSGGTAALGCLVKDYFPEPVTVSWNSGALTSGVHTFPAVLQSSGLYSLSSVVTVPSSSLGTQTYICNVNHKPSNTKVDKKVEPKSCDKTHTCPPCPAPELLGGDSVFLFPPKPKDTLYISRTPEVTCVVVDVSHEDPEVKFNWYVDGVEVHNAKTKPREEQYNSTYRVVSVLTVLHQDWLNGKEYKCKVSNKALPAPIEKTISKAKGQPREPQVYTLPPSRDELTKNQVSLTCLVKGFYPSDIAVEWESNGQPENNYKTTPPVLDSDGSFFLYSKLTVDKSRWQQGNVFSCSVMHEALHYHYTQKSLSLSP
light: not shown
For B2, the “relative binding activity (IL6R-F652/IL6R-L = 100)” value in assay [2] and in assay [3] was 100 throughout.

B3: IL6R-BP198/IL6R-L (antibody, human IgG1, kappa)
heavy: B2 heavy with E235D, L236Y, Y254M, H270D, P273G, K328A, A332K, Y436N, K441E
light: not shown
Consider B3, for which the relative binding activity in [4] was 104 % of control; in assay [5], 164 % of control; in assay [6], 449 % of control; in assay [7], 188 % of control; in assay [8], 157 % of control.

B4: IL6R-BP478/IL6R-L (antibody)
heavy: QVQLQESGPGLVKPSETLSLTCAVSGHSISHDHAWSWVRQPPGEGLEWIGFISYSGITNYNPSLQGRVTISRDNSKNTLYLQMNSLRAEDTAVYYCARSLARTTAMDYWGEGTLVTVSSASTKGPSVFPLAPCSRSTSESTAALGCLVKDYFPEPVTVSWNSGALTSGVHTFPAVLQSSGLYSLSSVVTVPSSSLGTKTYTCNVDHKPSNTKVDKRVESKYGPPCPPCPAPDLLGDDSVFLFPPKPKDTLMISRTPEVTCVVVDVSDEDGEVKFNWYVDGVEVHNAKTKPREEQDNSTYRVVSVLTVLHQDWLNGKEYKCKVSNKALPRPIEKTISKAKGQPREPQVYTLPPSRDELTKNQVSLTCLVKGFYPSDIAVEWESNGQPENNYKTTPPVLDSDGSFFLYSKLTVDKSRWQQGNVFSCSVMHEALHNHYTQESLSLSP
light: not shown
On to B4, for which the figures for the “binding relative to IL6R-BP230/IL6R-L” value in assay [9] and in assay [10] were 1.1 fold and 0.9 fold, respectively.
